What all share (test): PBM
Series [1] deals with SHOX R173C (human). The note with it: contrastQ 1.38E-15; Universal PBM, 200 nM protein in PBS; temperature and pH not stated in the material.
Series [2] relates to HOXD13 T313R (human). As to conditions: contrastQ 1.85E-52; Universal PBM, 200 nM protein in PBS; temperature and pH not stated in the material.
Series [3] relates to HESX1 N125S (human). As to conditions: Universal PBM, 200 nM protein in PBS, temperature and pH not stated in the material.
Series [4] relates to PROP1 R99Q (human). As to conditions: contrastQ 2.52E-38; Universal PBM, 200 nM protein in PBS; temperature and pH not stated in the material.
Series [5] relates to PROP1 F88S (human). The note with it: contrastQ 3.19E-277; Universal PBM, 200 nM protein in PBS; temperature and pH not stated in the material.
The test system of series [6] is HESX1 R160C (human). As to conditions: contrastQ 1.53E-116; Universal PBM, 200 nM protein in PBS; temperature and pH not stated in the material.
Series [7] relates to HESX1 E149K (human). As to conditions: contrastQ 9.83E-08; Universal PBM, 200 nM protein in PBS; temperature and pH not stated in the material.
Series [8] deals with HESX1 R109Q (human). The note with it: contrastQ 1.24E-92; Universal PBM, 200 nM protein in PBS; temperature and pH not stated in the material.
Series [9] relates to NKX2-5 K183E (human). As to conditions: Universal PBM, 200 nM protein in PBS, temperature and pH not stated in the material.
Series [10] relates to ARX L343Q (human). The note with it: contrastQ 3.05E-194; Universal PBM, 200 nM protein in PBS; temperature and pH not stated in the material.
Series [11] relates to ARX P353R (human). The note with it: Universal PBM, 200 nM protein in PBS; temperature and pH not stated in the material.
For series [12], the system named is ARX T333N (human). The note with it: contrastQ 5.30E-28; Universal PBM, 200 nM protein in PBS; temperature and pH not stated in the material.
Series [13] concerns HOXD13 I322L (human). As to conditions: Universal PBM, 200 nM protein in PBS, temperature and pH not stated in the material.
Series [14] deals with HOXD13 S316C (human). The note with it: contrastQ 0.9698003 (no significant change); Universal PBM, 200 nM protein in PBS; temperature and pH not stated in the material.

Our source for the binding signal (contrast difference vs reference) values is PMC11006913.

Turning to PBM 8-mer ATTATAAT, the binding signal (contrast difference vs reference) in series [1] is -1.91.

With PBM 8-mer CAATAAAA, the binding signal (contrast difference vs reference) in series [2] was -1.23.

In the case of PBM 8-mer CAATTAAA, in [3] (contrastQ 0.7783541 (no significant change)), the binding signal (contrast difference vs reference) was -0.277.

Take PBM 8-mer CTAATTGA: the binding signal (contrast difference vs reference) in series [4] is -0.687; in [5] it was -4.12; in series [3] (contrastQ 0.9069244 (no significant change)), -0.172; in series [6], -2.1; in series [7] it was -0.502; in [8] it was -3.4.

Turning to PBM 8-mer GCACTTCA, the binding signal (contrast difference vs reference) in series [9] (contrastQ 5.13E-38) is -1.27.

PBM 8-mer GCACTTGA: the binding signal (contrast difference vs reference) in [9] (contrastQ 1.87E-56) was -1.44.

For the substance PBM 8-mer GTTAATTA, the binding signal (contrast difference vs reference) in series [10] is -2.29; in series [11], -2.42; in series [12] it was -0.803.

Take PBM 8-mer TCATAAAA: the binding signal (contrast difference vs reference) was -1.15 in series [13] (contrastQ 8.96E-16) and 0.133 in series [14].

For PBM 8-mer TCGTAAAA, the binding signal (contrast difference vs reference) in series [13] (contrastQ 3.41E-01 (no significant change)) turned out to be 0.259; in [14] it was 0.128.
